Measurements taken from article PMC6930079.

Target: YFP-PP1γ (UniProt P36873)
Assay: live-cell FRET at kinetochores (FRET/CFP intensity ratio)
Conditions: HeLa cells, MG132 for 1 hr before imaging, 37°C; Cells = 6, Area KT = 42 (4A) and 50 (WT); parent: est. 1.6; read off a plot

UniProt P36873, sequence (P36873 whole entry): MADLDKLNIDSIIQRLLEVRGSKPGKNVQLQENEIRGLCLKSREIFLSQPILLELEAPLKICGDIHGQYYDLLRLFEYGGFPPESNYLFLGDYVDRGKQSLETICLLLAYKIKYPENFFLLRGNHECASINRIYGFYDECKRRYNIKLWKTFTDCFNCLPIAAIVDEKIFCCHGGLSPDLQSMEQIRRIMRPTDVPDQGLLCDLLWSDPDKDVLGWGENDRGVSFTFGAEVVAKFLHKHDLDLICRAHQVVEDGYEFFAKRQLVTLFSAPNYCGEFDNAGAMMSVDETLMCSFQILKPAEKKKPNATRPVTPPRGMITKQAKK

response: 1.2
Substance: Astrin-CFP (WT) (from UniProt Q96R06) 4A (RVMF motif changed to AAAA)
